Paper PMC5499865 (Nucleic Acids Research, 2017)

Molecular target: His-MPK6 (Arabidopsis thaliana, UniProt Q39026 1-395)
Assay: pull-down

Chain of His-MPK6 (Q39026 whole entry): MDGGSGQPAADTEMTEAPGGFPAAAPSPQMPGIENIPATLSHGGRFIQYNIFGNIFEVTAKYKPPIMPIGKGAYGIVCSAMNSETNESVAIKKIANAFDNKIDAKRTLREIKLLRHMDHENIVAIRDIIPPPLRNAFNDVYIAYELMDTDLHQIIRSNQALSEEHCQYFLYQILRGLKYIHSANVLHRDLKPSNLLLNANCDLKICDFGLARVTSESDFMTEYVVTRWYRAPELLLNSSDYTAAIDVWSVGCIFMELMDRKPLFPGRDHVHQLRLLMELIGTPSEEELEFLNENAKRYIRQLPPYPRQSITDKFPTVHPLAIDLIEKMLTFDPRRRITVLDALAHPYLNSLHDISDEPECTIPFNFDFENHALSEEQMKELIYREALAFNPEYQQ

B1: GST-MYB15 (natural protein, Arabidopsis thaliana, UniProt Q9LTC4 1-285, looked up)
chain: MGRAPCCEKMGLKRGPWTPEEDQILVSFILNHGHSNWRALPKQAGLLRCGKSCRLRWMNYLKPDIKRGNFTKEEEDAIISLHQILGNRWSAIAAKLPGRTDNEIKNVWHTHLKKRLEDYQPAKPKTSNKKKGTKPKSESVITSSNSTRSESELADSSNPSGESLFSTSPSTSEVSSMTLISHDGYSNEINMDNKPGDISTIDQECVSFETFGADIDESFWKETLYSQDEHNYVSNDLEVAGLVEIQQEFQNLGSANNEMIFDSEMDFWFDVLARTGGEQDLLAGL
binding result: binds
